To fix the notation:
B1: Compound 59 (peptide)
peptide: Palmitoyl-RETNAGRSDTRQQYRKLL-NH2
SMILES: CCCCCCCCCCCCCCCC(=O)N[C@@H](CCCNC(=N)N)C(=O)N[C@@H](CCC(=O)O)C(=O)N[C@H](C(=O)N[C@@H](CC(N)=O)C(=O)N[C@@H](C)C(=O)NCC(=O)N[C@@H](CCCNC(=N)N)C(=O)N[C@@H](CO)C(=O)N[C@@H](CC(=O)O)C(=O)N[C@H](C(=O)N[C@@H](CCCNC(=N)N)C(=O)N[C@@H](CCC(N)=O)C(=O)N[C@@H](CCC(N)=O)C(=O)N[C@@H](Cc1ccc(O)cc1)C(=O)N[C@@H](CCCNC(=N)N)C(=O)N[C@@H](CCCCN)C(=O)N[C@@H](CC(C)C)C(=O)N[C@@H](CC(C)C)C(N)=O)[C@@H](C)O)[C@@H](C)O
B2: Compound 56 (peptide)
peptide: Palmitoyl-DTRQQYRKLLKSTL-NH2
SMILES: CCCCCCCCCCCCCCCC(=O)N[C@@H](CC(=O)O)C(=O)N[C@H](C(=O)N[C@@H](CCCNC(=N)N)C(=O)N[C@@H](CCC(N)=O)C(=O)N[C@@H](CCC(N)=O)C(=O)N[C@@H](Cc1ccc(O)cc1)C(=O)N[C@@H](CCCNC(=N)N)C(=O)N[C@@H](CCCCN)C(=O)N[C@@H](CC(C)C)C(=O)N[C@@H](CC(C)C)C(=O)N[C@@H](CCCCN)C(=O)N[C@@H](CO)C(=O)N[C@H](C(=O)N[C@@H](CC(C)C)C(N)=O)[C@@H](C)O)[C@@H](C)O
B3: Compound 60 (peptide)
peptide: Palmitoyl-RETNAGRSDTRQQYRK-NH2
SMILES: CCCCCCCCCCCCCCCC(=O)N[C@@H](CCCNC(=N)N)C(=O)N[C@@H](CCC(=O)O)C(=O)N[C@H](C(=O)N[C@@H](CC(N)=O)C(=O)N[C@@H](C)C(=O)NCC(=O)N[C@@H](CCCNC(=N)N)C(=O)N[C@@H](CO)C(=O)N[C@@H](CC(=O)O)C(=O)N[C@H](C(=O)N[C@@H](CCCNC(=N)N)C(=O)N[C@@H](CCC(N)=O)C(=O)N[C@@H](CCC(N)=O)C(=O)N[C@@H](Cc1ccc(O)cc1)C(=O)N[C@@H](CCCNC(=N)N)C(=O)N[C@@H](CCCCN)C(N)=O)[C@@H](C)O)[C@@H](C)O
B4: Compound 62 (peptide)
peptide: Palmitoyl-RETNAGRSDTRQQY-NH2
SMILES: CCCCCCCCCCCCCCCC(=O)N[C@@H](CCCNC(=N)N)C(=O)N[C@@H](CCC(=O)O)C(=O)N[C@H](C(=O)N[C@@H](CC(N)=O)C(=O)N[C@@H](C)C(=O)NCC(=O)N[C@@H](CCCNC(=N)N)C(=O)N[C@@H](CO)C(=O)N[C@@H](CC(=O)O)C(=O)N[C@H](C(=O)N[C@@H](CCCNC(=N)N)C(=O)N[C@@H](CCC(N)=O)C(=O)N[C@@H](CCC(N)=O)C(=O)N[C@@H](Cc1ccc(O)cc1)C(N)=O)[C@@H](C)O)[C@@H](C)O
B5: Compound 61 (peptide)
peptide: Palmitoyl-RETNAGRSDTRQQYRF-NH2
SMILES: CCCCCCCCCCCCCCCC(=O)N[C@@H](CCCNC(=N)N)C(=O)N[C@@H](CCC(=O)O)C(=O)N[C@H](C(=O)N[C@@H](CC(N)=O)C(=O)N[C@@H](C)C(=O)NCC(=O)N[C@@H](CCCNC(=N)N)C(=O)N[C@@H](CO)C(=O)N[C@@H](CC(=O)O)C(=O)N[C@H](C(=O)N[C@@H](CCCNC(=N)N)C(=O)N[C@@H](CCC(N)=O)C(=O)N[C@@H](CCC(N)=O)C(=O)N[C@@H](Cc1ccc(O)cc1)C(=O)N[C@@H](CCCNC(=N)N)C(=O)N[C@@H](Cc1ccccc1)C(N)=O)[C@@H](C)O)[C@@H](C)O
B6: Compound 64 (peptide)
peptide: Palmitoyl-TNAGRSDTRQQYRKLLKS-NH2
SMILES: CCCCCCCCCCCCCCCC(=O)N[C@H](C(=O)N[C@@H](CC(N)=O)C(=O)N[C@@H](C)C(=O)NCC(=O)N[C@@H](CCCNC(=N)N)C(=O)N[C@@H](CO)C(=O)N[C@@H](CC(=O)O)C(=O)N[C@H](C(=O)N[C@@H](CCCNC(=N)N)C(=O)N[C@@H](CCC(N)=O)C(=O)N[C@@H](CCC(N)=O)C(=O)N[C@@H](Cc1ccc(O)cc1)C(=O)N[C@@H](CCCNC(=N)N)C(=O)N[C@@H](CCCCN)C(=O)N[C@@H](CC(C)C)C(=O)N[C@@H](CC(C)C)C(=O)N[C@@H](CCCCN)C(=O)N[C@@H](CO)C(N)=O)[C@@H](C)O)[C@@H](C)O
B7: Compound 3 (peptide)
peptide: Palmitoyl-LAYFRRLHSTRNY-NH2
SMILES: CCCCCCCCCCCCCCCC(=O)N[C@@H](CC(C)C)C(=O)N[C@@H](C)C(=O)N[C@@H](Cc1ccc(O)cc1)C(=O)N[C@@H](Cc1ccccc1)C(=O)N[C@@H](CCCNC(=N)N)C(=O)N[C@@H](CCCNC(=N)N)C(=O)N[C@@H](CC(C)C)C(=O)N[C@@H](Cc1c[nH]cn1)C(=O)N[C@@H](CO)C(=O)N[C@H](C(=O)N[C@@H](CCCNC(=N)N)C(=O)N[C@@H](CC(N)=O)C(=O)N[C@@H](Cc1ccc(O)cc1)C(N)=O)[C@@H](C)O
B8: Compound 54 (peptide)
peptide: Palmitoyl-NIVRVLATKLRETNAGR-NH2
SMILES: CCCCCCCCCCCCCCCC(=O)N[C@@H](CC(N)=O)C(=O)N[C@H](C(=O)N[C@H](C(=O)N[C@@H](CCCNC(=N)N)C(=O)N[C@H](C(=O)N[C@@H](CC(C)C)C(=O)N[C@@H](C)C(=O)N[C@H](C(=O)N[C@@H](CCCCN)C(=O)N[C@@H](CC(C)C)C(=O)N[C@@H](CCCNC(=N)N)C(=O)N[C@@H](CCC(=O)O)C(=O)N[C@H](C(=O)N[C@@H](CC(N)=O)C(=O)N[C@@H](C)C(=O)NCC(=O)N[C@@H](CCCNC(=N)N)C(N)=O)[C@@H](C)O)[C@@H](C)O)C(C)C)C(C)C)[C@@H](C)CC
B9: Compound 55 (peptide)
peptide: Palmitoyl-NIVRVLATKLRE-NH2
SMILES: CCCCCCCCCCCCCCCC(=O)N[C@@H](CC(N)=O)C(=O)N[C@H](C(=O)N[C@H](C(=O)N[C@@H](CCCNC(=N)N)C(=O)N[C@H](C(=O)N[C@@H](CC(C)C)C(=O)N[C@@H](C)C(=O)N[C@H](C(=O)N[C@@H](CCCCN)C(=O)N[C@@H](CC(C)C)C(=O)N[C@@H](CCCNC(=N)N)C(=O)N[C@@H](CCC(=O)O)C(N)=O)[C@@H](C)O)C(C)C)C(C)C)[C@@H](C)CC
B10: Compound 2 (peptide)
peptide: Palmitoyl-RRLHSTRNYIH-NH2
SMILES: CCCCCCCCCCCCCCCC(=O)N[C@@H](CCCNC(=N)N)C(=O)N[C@@H](CCCNC(=N)N)C(=O)N[C@@H](CC(C)C)C(=O)N[C@@H](Cc1c[nH]cn1)C(=O)N[C@@H](CO)C(=O)N[C@H](C(=O)N[C@@H](CCCNC(=N)N)C(=O)N[C@@H](CC(N)=O)C(=O)N[C@@H](Cc1ccc(O)cc1)C(=O)N[C@H](C(=O)N[C@@H](Cc1c[nH]cn1)C(N)=O)[C@@H](C)CC)[C@@H](C)O
B11: Compound 58 (peptide)
peptide: Palmitoyl-RETNAGRSDTRQQYRKLLFS-NH2
SMILES: CCCCCCCCCCCCCCCC(=O)N[C@@H](CCCNC(=N)N)C(=O)N[C@@H](CCC(=O)O)C(=O)N[C@H](C(=O)N[C@@H](CC(N)=O)C(=O)N[C@@H](C)C(=O)NCC(=O)N[C@@H](CCCNC(=N)N)C(=O)N[C@@H](CO)C(=O)N[C@@H](CC(=O)O)C(=O)N[C@H](C(=O)N[C@@H](CCCNC(=N)N)C(=O)N[C@@H](CCC(N)=O)C(=O)N[C@@H](CCC(N)=O)C(=O)N[C@@H](Cc1ccc(O)cc1)C(=O)N[C@@H](CCCNC(=N)N)C(=O)N[C@@H](CCCCN)C(=O)N[C@@H](CC(C)C)C(=O)N[C@@H](CC(C)C)C(=O)N[C@@H](Cc1ccccc1)C(=O)N[C@@H](CO)C(N)=O)[C@@H](C)O)[C@@H](C)O
B12: Compound 14 (peptide)
peptide: Palmitoyl-LAYFRRLHSTRN-NH2
SMILES: CCCCCCCCCCCCCCCC(=O)N[C@@H](CC(C)C)C(=O)N[C@@H](C)C(=O)N[C@@H](Cc1ccc(O)cc1)C(=O)N[C@@H](Cc1ccccc1)C(=O)N[C@@H](CCCNC(=N)N)C(=O)N[C@@H](CCCNC(=N)N)C(=O)N[C@@H](CC(C)C)C(=O)N[C@@H](Cc1c[nH]cn1)C(=O)N[C@@H](CO)C(=O)N[C@H](C(=O)N[C@@H](CCCNC(=N)N)C(=O)N[C@@H](CC(N)=O)C(N)=O)[C@@H](C)O
B13: Compound 40 (peptide)
peptide: Palmitoyl-LYLHSLIFMAFFSEKK-NH2
modifications: not fully specified
B14: Compound 57 (peptide)
peptide: Palmitoyl-RQQYRKLLKSTL-NH2
SMILES: CCCCCCCCCCCCCCCC(=O)N[C@@H](CCCNC(=N)N)C(=O)N[C@@H](CCC(N)=O)C(=O)N[C@@H](CCC(N)=O)C(=O)N[C@@H](Cc1ccc(O)cc1)C(=O)N[C@@H](CCCNC(=N)N)C(=O)N[C@@H](CCCCN)C(=O)N[C@@H](CC(C)C)C(=O)N[C@@H](CC(C)C)C(=O)N[C@@H](CCCCN)C(=O)N[C@@H](CO)C(=O)N[C@H](C(=O)N[C@@H](CC(C)C)C(N)=O)[C@@H](C)O

* marks the point of attachment. Palmitoyl = CCCCCCCCCCCCCCCC(=O)*

In this experiment the target is PTHR1 receptor.
Chain of PTHR1 receptor (P25961 whole entry): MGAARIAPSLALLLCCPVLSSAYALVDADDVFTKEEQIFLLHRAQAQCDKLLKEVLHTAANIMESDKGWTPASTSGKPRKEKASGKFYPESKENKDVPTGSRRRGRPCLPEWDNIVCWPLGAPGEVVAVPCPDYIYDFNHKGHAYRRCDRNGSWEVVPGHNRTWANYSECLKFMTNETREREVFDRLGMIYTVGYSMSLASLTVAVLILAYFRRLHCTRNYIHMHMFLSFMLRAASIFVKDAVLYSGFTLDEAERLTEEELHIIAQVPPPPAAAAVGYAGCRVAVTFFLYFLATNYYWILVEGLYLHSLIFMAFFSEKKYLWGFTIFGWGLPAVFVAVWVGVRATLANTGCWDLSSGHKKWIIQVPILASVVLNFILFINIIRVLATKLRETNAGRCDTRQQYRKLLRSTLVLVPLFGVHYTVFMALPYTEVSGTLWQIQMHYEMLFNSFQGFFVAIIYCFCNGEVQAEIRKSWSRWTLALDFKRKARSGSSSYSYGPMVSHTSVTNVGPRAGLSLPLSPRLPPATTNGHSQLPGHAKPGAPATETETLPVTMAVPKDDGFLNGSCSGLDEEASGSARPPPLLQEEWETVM
Regarding B1, the Fold Shift of EC50 is 5.2 fold and the Inhibition of Maximal Response is 3%.
The corresponding values for B2 are 1.9 fold and -30.4%.
The corresponding values for B3 are 3.3 fold and 4.3%.
For B4, the Fold Shift of EC50 is 1.1 fold and the Inhibition of Maximal Response was -5.4%.
The corresponding values for B5 are 0.7 fold and -47.6%.
Take B6: the Fold Shift of EC50 came to 7 fold and the Inhibition of Maximal Response is -0.1%.
For B7 the same measures were 0.7 fold and -51.4%.
Regarding B8, the Fold Shift of EC50 turned out to be 0.7 fold and the Inhibition of Maximal Response worked out at 17.5%.
Take B9: the Fold Shift of EC50 was determined as 0.6 fold and the Inhibition of Maximal Response is 26.1%.
B10: the Fold Shift of EC50 was 1.9 fold and the Inhibition of Maximal Response was -24.9%.
B11: the Fold Shift of EC50 is 17.7 fold and the Inhibition of Maximal Response came out at 0.0367.
For B12 the same measures were 0.7 fold and 15.2%.
Turning to B13, the Fold Shift of EC50 worked out at 1.5 fold and the Inhibition of Maximal Response was 28.3%.
The corresponding values for B14 are 15.6 fold and -38.8%.

The values are drawn from patent US20110294738A1, “PTHR1 RECEPTOR COMPOUNDS” (priority 2008, published 2011).
